By Kd is commonly meant the free concentration of one partner at which half of the binding sites on the other are occupied at equilibrium, for simple one-to-one binding. The koff is the rate constant with which the complex falls apart. Usually kon stands for the rate constant with which the complex forms. Read a low kon as slow association. As usually defined, the EC50 (read off the curve) is the concentration at which the effect is half-maximal. Lower therefore signals greater potency.

Read-outs that look alike come from different tables or passages of the source.

For experiment [1], the target named is human PD-1 expressed on cells (Jurkat-Luc-hPD-1, CHO-K1-hPD1, Jurkat-hPD1) (human, UniProt Q15116 25-288). Kind of experiment: cell-based or functional assay.
The target of experiment [2] is T1, neonatal Fc receptor (FcRn).
T1 construct: Analyte in Biacore
Nature of the experiment: SPR (Biacore), antibody captured, FcRn as analyte. The procedure: The binding affinity to neonatal Fc receptor (FcRn) was determined by Biacore® systems.
In general terms: Surface plasmon resonance follows binding to a sensor surface in real time, without labels.

For experiment [3], the target named is T2, human PD-1/PDCD1 protein, His Tag (ACRO Biosystems Cat #PD1-H5221) (human, UniProt Q15116 25-167).
T2 construct: Bought protein; also called hPD-1; human PD-1 protein; not shown: His tag
Kind of experiment: SPR (Biacore), antibody captured, His-tagged hPD-1 in solution.

Experiment [4] concerns the target T3, human CD40 expressed on Jurkat-Luc-hCD40 reporter cells (human, UniProt P25942 21-277). Kind of experiment: cell-based or functional assay.
Experiment [5] addresses T4, human CD40/TNFRSF5 Protein, His Tag (ACRO Biosystems Cat #CD0-H5228) (human, UniProt P25942 21-193).
T4 construct: Bought protein; also called hCD40; human CD40 protein; not shown: His tag
Kind of experiment: SPR (Biacore), antibody captured, His-tagged hCD40 in solution.

Experiment [6] addresses T3, human CD40 expressed on …. Nature of the experiment: cell-based or functional assay. The source holds these as a separate data set.
Experiment [7] addresses T3, human CD40 expressed on …. Kind of experiment: cell-based or functional assay. This is another data set of the same source.
For experiment [8], the target named is T3, human CD40 expressed on …. Kind of experiment: cell-based or functional assay. This is another data set of the same source.
The target of experiment [9] is T3, human CD40 expressed on …. Kind of experiment: cell-based or functional assay. This is another data set of the same source.
The target of experiment [10] is T3, human CD40 expressed on …. Kind of experiment: cell-based or functional assay. This is another data set of the same source.
The target in experiment [11] is T4, human CD40/TNFRSF5 Protein, His Tag …. Nature of the experiment: SPR (Biacore), hCD40. The procedure:
The binding affinity to human […] (hCD40) was determined by Biacore systems.

Experiment [12] deals with T3, human CD40 expressed on …. Kind of experiment: cell-based or functional assay. The source holds these as a separate data set.
Experiment [13] deals with T3, human CD40 expressed on …. Kind of experiment: cell-based or functional assay. This is another data set of the same source.
For experiment [14], the target named is T3, human CD40 expressed on …. Kind of experiment: cell-based or functional assay. The source holds these as a separate data set.

T2 sequence (Q15116 25-167 limits assumed): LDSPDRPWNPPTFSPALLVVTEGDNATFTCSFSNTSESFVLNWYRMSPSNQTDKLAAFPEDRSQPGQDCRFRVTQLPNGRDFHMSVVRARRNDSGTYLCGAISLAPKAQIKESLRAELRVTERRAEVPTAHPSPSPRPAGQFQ
T3 sequence (P25942 21-277 limits assumed): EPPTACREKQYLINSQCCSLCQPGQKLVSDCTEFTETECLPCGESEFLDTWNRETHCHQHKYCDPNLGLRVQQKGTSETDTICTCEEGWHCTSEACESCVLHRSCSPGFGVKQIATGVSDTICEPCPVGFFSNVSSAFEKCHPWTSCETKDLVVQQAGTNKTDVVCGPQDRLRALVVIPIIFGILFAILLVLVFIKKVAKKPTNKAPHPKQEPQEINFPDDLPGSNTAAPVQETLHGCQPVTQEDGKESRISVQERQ
Sequence of human PD-1 expressed on cells (Jurkat-Luc-hPD-1, CHO-K1-hPD1, Jurkat-hPD1) (Q15116 25-288 limits assumed): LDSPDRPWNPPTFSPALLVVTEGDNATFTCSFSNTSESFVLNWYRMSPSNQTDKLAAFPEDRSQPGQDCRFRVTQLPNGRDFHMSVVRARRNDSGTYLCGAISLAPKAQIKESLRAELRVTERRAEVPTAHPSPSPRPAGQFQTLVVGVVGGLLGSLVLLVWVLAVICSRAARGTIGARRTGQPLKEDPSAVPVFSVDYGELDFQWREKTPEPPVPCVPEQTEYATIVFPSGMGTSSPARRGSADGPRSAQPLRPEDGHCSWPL
T4 sequence (P25942 21-193 limits assumed): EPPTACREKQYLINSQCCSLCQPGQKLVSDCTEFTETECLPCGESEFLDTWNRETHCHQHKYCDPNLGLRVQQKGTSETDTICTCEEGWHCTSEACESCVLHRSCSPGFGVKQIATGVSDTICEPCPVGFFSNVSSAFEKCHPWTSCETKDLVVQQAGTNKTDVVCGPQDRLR
T1 sequence (P55899 24-297, chain 1 of 2): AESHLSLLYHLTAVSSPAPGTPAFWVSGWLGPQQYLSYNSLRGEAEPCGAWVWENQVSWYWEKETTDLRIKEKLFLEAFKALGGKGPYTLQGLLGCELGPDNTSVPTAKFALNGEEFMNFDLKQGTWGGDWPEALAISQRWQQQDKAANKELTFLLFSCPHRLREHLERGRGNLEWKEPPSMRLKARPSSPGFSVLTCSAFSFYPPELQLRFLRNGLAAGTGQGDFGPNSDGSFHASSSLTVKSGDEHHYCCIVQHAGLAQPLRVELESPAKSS
T1 sequence (P61769 21-119, chain 2 of 2, further chain): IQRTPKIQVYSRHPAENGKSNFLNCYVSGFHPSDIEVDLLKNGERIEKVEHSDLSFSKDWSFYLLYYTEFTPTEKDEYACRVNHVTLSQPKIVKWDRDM

B1: anti-PD-1 monoclonal antibody 1A7-H2K3-IgG4 (antibody)
VH: EVQLVESGGGLVQPGGSLRLSCAASGFTFSSYSMSWVRQAPGKRLEWVAHISSGGSSTYYPDTVKGRFTISRDNSKNTLYLQMNSLRAEDTAMYYCTRQFYYGSSFWYFDVWGAGTTVTVSS
light: DNVLTQSPATLSVSPGERATLSCKASQSVDFDGDSYMNWYQQKPGQPPRLLIYAASNLESGIPARFSGSGSGTDFTLTISSVEPEDFATYYCQQSNEDPPTFGGGTKVEIKRTVAAPSVFIFPPSDEQLKSGTASVVCLLNNFYPREAKVQWKVDNALQSGNSQESVTEQDSKDSTYSLSSTLTLSKADYEKHKVYACEVTHQGLSSPVTKSFNRGEC
notes: IgG4; also called PD-1 (1A7-H2K3-IgG4); PD1-1A7-H2K3-IgG4
As to B1, the “EC50 Value (ug/ml), luminescence of Jurkat-Luc-hPD-1 effector cells co-cultured with CHO-aAPC-hPD-L1 cells” value (“EC50 Value (ug/ml) … with CHO-aAPC-hPD-L1 cells” for short) in experiment [1] turned out to be 5.61 µg/mL. The molecule also yielded a Kd in experiment [2] of 2210 nM. In experiment [3], this molecule came in with a Kd of 8.56 nM, a koff of 0.00125 s⁻¹ and a kon of 146000 M⁻¹ s⁻¹.

B2: 1A7-selicrelumab-FV3A-IgG4 (bispecific antibody)
heavy: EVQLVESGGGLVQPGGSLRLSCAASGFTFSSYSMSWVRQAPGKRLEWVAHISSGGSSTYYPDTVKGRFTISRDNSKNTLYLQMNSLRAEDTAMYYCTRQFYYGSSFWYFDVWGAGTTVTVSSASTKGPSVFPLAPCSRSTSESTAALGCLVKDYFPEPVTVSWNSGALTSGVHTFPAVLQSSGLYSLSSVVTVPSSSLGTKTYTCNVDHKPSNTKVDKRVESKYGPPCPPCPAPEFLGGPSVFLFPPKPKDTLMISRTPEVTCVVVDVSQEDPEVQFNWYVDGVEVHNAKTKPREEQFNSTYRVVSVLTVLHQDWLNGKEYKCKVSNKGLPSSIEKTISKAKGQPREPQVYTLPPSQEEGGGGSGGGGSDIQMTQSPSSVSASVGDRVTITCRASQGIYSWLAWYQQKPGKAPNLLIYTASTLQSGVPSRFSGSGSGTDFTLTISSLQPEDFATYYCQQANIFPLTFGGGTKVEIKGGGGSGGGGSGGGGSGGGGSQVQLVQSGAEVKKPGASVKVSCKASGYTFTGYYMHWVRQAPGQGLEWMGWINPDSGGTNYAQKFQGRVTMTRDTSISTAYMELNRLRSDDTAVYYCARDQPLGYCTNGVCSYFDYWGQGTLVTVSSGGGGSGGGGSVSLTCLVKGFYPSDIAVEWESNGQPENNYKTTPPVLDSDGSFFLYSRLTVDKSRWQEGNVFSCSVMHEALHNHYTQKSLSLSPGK
light: B1 light
Regarding B2, the concentration giving a half-maximal response (EC50 (read off the curve)) in [4] is about 0.3 µg/mL.

B3: ScFV-HC-IgG4 (bispecific antibody)
heavy: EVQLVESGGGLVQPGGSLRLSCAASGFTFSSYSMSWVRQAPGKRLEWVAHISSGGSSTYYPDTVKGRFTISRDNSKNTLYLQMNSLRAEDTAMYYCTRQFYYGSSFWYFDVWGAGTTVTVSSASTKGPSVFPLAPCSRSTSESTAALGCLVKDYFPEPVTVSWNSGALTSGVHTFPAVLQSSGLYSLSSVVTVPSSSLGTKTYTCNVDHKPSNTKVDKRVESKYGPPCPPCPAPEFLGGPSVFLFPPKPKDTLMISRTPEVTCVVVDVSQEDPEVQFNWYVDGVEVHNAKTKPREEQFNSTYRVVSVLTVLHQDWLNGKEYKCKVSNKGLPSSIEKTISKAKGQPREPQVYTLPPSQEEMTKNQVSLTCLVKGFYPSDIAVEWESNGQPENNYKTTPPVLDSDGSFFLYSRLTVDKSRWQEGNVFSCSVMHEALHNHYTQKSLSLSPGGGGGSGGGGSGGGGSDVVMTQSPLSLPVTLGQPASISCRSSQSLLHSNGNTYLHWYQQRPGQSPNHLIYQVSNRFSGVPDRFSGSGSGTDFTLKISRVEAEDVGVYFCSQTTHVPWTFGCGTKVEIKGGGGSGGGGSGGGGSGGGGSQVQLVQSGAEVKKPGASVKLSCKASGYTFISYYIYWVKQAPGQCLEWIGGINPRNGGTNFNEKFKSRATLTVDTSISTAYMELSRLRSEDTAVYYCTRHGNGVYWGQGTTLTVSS
light: B1 light
notes: Anti-CD40 scFv (6A7-H4K2) joined to the C-terminus of each heavy chain of the anti-PD-1 antibody 1A7-H2K3, IgG4
In experiment [5], B3 registered a Kd of 1.3 nM, a koff of 0.00034 s⁻¹ and a kon of 261000 M⁻¹ s⁻¹. In [1], the “EC50 Value (ug/ml) … with CHO-aAPC-hPD-L1 cells” value amounted to 4.36 µg/mL. Besides, the “EC50 Value (ug/ml), luminescence of Jurkat-Luc-hCD40 reporter cells in the presence of CHO-K1-hPD1 basal cells” value in experiment [6] worked out at 0.0108 µg/mL. Further, in [7], the “EC50 Value (ug/ml), luminescence of Jurkat-Luc-hCD40 reporter cells in the presence of Jurkat-hPD1 basal cells” value (from here on “EC50 Value (ug/ml) … of Jurkat-hPD1 basal cells”) is 0.0079 µg/mL. In addition, in experiment [3], binding was put at a Kd of 8.28 nM, the koff was 0.00122 s⁻¹ and the kon is 148000 M⁻¹ s⁻¹.

B4: Fab-ScFV-IgG4 (bispecific antibody)
heavy: EVQLVESGGGLVQPGGSLRLSCAASGFTFSSYSMSWVRQAPGKRLEWVAHISSGGSSTYYPDTVKGRFTISRDNSKNTLYLQMNSLRAEDTAMYYCTRQFYYGSSFWYFDVWGAGTTVTVSSASTKGPSVFPLAPCSRSTSESTAALGCLVKDYFPEPVTVSWNSGALTSGVHTFPAVLQSSGLYSLSSVVTVPSSSLGTKTYTCNVDHKPSNTKVDKRVESKYGPPCPPCPAPEFLGGPSVFLFPPKPKDTLMISRTPEVTCVVVDVSQEDPEVQFNWYVDGVEVHNAKTKPREEQFNSTYRVVSVLTVLHQDWLNGKEYKCKVSNKGLPSSIEKTISKAKGQPREPQVYTLPPCQEEMTKNQVSLWCLVKGFYPSDIAVEWESNGQPENNYKTTPPVLDSDGSFFLYSRLTVDKSRWQEGNVFSCSVMHEALHNHYTQKSLSLSLGK
light: B1 light
chain: QVQLVQSGAEVKKPGASVKLSCKASGYTFISYYIYWVKQAPGQCLEWIGGINPRNGGTNFNEKFKSRATLTVDTSISTAYMELSRLRSEDTAVYYCTRHGNGVYWGQGTTLTVSSASTGGGGSGGGGSGGGGSGGGGSDVVMTQSPLSLPVTLGQPASISCRSSQSLLHSNGNTYLHWYQQRPGQSPNHLIYQVSNRFSGVPDRFSGSGSGTDFTLKISRVEAEDVGVYFCSQTTHVPWTFGCGTKVEIKDKRVESKYGPPCPPCPAPEFLGGPSVFLFPPKPKDTLMISRTPEVTCVVVDVSQEDPEVQFNWYVDGVEVHNAKTKPREEQFNSTYRVVSVLTVLHQDWLNGKEYKCKVSNKGLPSSIEKTISKAKGQPREPQVCTLPPSQEEMTKNQVSLSCAVKGFYPSDIAVEWESNGQPENNYKTTPPVLDSDGSFFLVSRLTVDKSRWQEGNVFSCSVMHEALHNHYTQKSLSLSLGK
notes: Anti-PD-1 arm (1A7-H2K3 heavy and light chain, IgG4 with KIH) and anti-CD40 arm (6A7-H4K2 scFv joined to IgG4 CH2-CH3 with KIH)
With B4, in experiment [5], binding was characterised by a dissociation constant (Kd) of 1.75 nM, the koff is 0.0005 s⁻¹ and the kon was found to be 285000 M⁻¹ s⁻¹. Besides, in [8], the “EC50 (read off the curve), luciferase Rlu, Jurkat-Luc-hCD40 reporter cells with CHO-K1-hFcγRIIB basal cells” value was about 0.05 µg/mL. In [1], the “EC50 Value (ug/ml) … with CHO-aAPC-hPD-L1 cells” value worked out at 23.4 µg/mL. The “EC50 Value (ug/ml), luminescence of Jurkat-Luc-hCD40 reporter cells in the presence of CHO-K1-hPD1 basal cells” value in [6] was 0.0103 µg/mL. Moreover, the “EC50 (read off the curve), luciferase Rlu, Jurkat-Luc-hCD40 reporter cells with CHO-K1-hPD-1 basal cells” value in experiment [9] was about 0.04 µg/mL. The “EC50 Value (ug/ml), luminescence of Jurkat-Luc-hCD40 reporter cells in the presence of CHO-K1-hFcγRIIB basal cells” value in experiment [10] is 0.0543 µg/mL. In experiment [3], this molecule yielded a Kd of 9.78 nM, a koff of 0.00117 s⁻¹ and a kon of 120000 M⁻¹ s⁻¹.

B5: ScFV-HC-IgG1-LALA (bispecific antibody)
heavy: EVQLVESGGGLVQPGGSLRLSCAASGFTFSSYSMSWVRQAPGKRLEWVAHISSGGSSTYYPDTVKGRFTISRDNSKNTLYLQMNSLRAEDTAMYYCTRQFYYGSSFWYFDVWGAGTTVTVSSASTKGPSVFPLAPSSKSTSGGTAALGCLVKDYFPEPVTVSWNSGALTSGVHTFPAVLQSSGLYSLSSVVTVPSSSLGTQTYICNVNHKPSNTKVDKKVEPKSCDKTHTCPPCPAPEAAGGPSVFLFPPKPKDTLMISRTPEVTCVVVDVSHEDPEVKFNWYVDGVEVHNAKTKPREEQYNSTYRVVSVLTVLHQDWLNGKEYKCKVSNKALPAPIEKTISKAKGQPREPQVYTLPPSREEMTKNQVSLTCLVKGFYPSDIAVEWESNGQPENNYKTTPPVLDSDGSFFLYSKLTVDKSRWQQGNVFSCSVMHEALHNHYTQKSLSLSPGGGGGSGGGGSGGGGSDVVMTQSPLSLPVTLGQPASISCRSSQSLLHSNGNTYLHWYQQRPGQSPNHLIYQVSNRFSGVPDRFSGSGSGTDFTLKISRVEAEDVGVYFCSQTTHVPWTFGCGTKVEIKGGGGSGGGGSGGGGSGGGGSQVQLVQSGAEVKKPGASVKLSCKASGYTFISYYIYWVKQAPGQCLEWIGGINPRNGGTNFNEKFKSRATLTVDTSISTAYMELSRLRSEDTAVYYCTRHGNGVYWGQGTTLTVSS
light: B1 light
Regarding B5, in experiment [7], the “EC50 Value (ug/ml) … of Jurkat-hPD1 basal cells” value was found to be 0.0065 µg/mL.

B6: PD1-C40-6A7-FV3A (bispecific antibody, human IgG4 S228P, kappa)
heavy: EVQLVESGGGLVQPGGSLRLSCAASGFTFSSYSMSWVRQAPGKRLEWVAHISSGGSSTYYPDTVKGRFTISRDNSKNTLYLQMNSLRAEDTAMYYCTRQFYYGSSFWYFDVWGAGTTVTVSSASTKGPSVFPLAPCSRSTSESTAALGCLVKDYFPEPVTVSWNSGALTSGVHTFPAVLQSSGLYSLSSVVTVPSSSLGTKTYTCNVDHKPSNTKVDKRVESKYGPPCPPCPAPEFLGGPSVFLFPPKPKDTLMISRTPEVTCVVVDVSQEDPEVQFNWYVDGVEVHNAKTKPREEQFNSTYRVVSVLTVLHQDWLNGKEYKCKVSNKGLPSSIEKTISKAKGQPREPQVYTLPPSQEEGGGGSGGGGSDVVMTQSPLSLPVTLGQPASISCRSSQSLLHSNGNTYLHWYQQRPGQSPNHLIYQVSNRFSGVPDRFSGSGSGTDFTLKISRVEAEDVGVYFCSQTTHVPWTFGCGTKVEIKGGGGSGGGGSGGGGSGGGGSQVQLVQSGAEVKKPGASVKLSCKASGYTFISYYIYWVKQAPGQCLEWIGGINPRNGGTNFNEKFKSRATLTVDTSISTAYMELSRLRSEDTAVYYCTRHGNGVYWGQGTTLTVSSGGGGSGGGGSVSLTCLVKGFYPSDIAVEWESNGQPENNYKTTPPVLDSDGSFFLYSRLTVDKSRWQEGNVFSCSVMHEALHNHYTQKSLSLSPGK
light: B1 light
notes: Anti-CD40 scFv (6A7) fused into each heavy chain CH3 domain at positions 358-362 (EU numbering) of the anti-PD-1 antibody 1A7-H2K3-IgG4
For the molecule B6, binding in [2] was put at a Kd of 1680 nM. In [11], this molecule registered a Kd of 0.419 nM, a koff of 0.000255 s⁻¹ and a kon of 608000 M⁻¹ s⁻¹. For the same molecule, the “EC50 (read off the curve), luciferase Rlu, Jurkat-Luc-hCD40 reporter cells with CHO-K1-hPD-1 basal cells” value in experiment [9] was about 0.03 µg/mL.

B7: anti-CD40 monoclonal antibody 6A7-H4K2-IgG2 (antibody, V domains shown)
VH: QVQLVQSGAEVKKPGASVKLSCKASGYTFISYYIYWVKQAPGQGLEWIGGINPRNGGTNFNEKFKSRATLTVDTSISTAYMELSRLRSEDTAVYYCTRHGNGVYWGQGTTLTVSS
VL: DVVMTQSPLSLPVTLGQPASISCRSSQSLLHSNGNTYLHWYQQRPGQSPNHLIYQVSNRFSGVPDRFSGSGSGTDFTLKISRVEAEDVGVYFCSQTTHVPWTFGGGTKVEIK
notes: IgG2; also called CD40 (6A7-H4K2-IgG2); C40 (6A7-H4K2-IgG2)
As to B7, the Kd in experiment [5] and in experiment [11] was 3.06 nM in each case. The koff in experiment [5] and in [11] was 0.000322 s⁻¹ throughout. Moreover, the kon in experiment [5] and in experiment [11] was 105000 M⁻¹ s⁻¹ throughout. Besides, the “EC50 (read off the curve), luciferase Rlu, Jurkat-Luc-hCD40 reporter cells with CHO-K1-hFcγRIIB basal cells” value was about 0.02 µg/mL in [8] and about 0.01 µg/mL in experiment [12]. Moreover, in [7], the “EC50 Value (ug/ml) … of Jurkat-hPD1 basal cells” value was 0.0089 µg/mL. The “EC50 Value (ug/ml), luminescence of Jurkat-Luc-hCD40 reporter cells in the presence of CHO-K1-hFcγRIIB basal cells” value in experiment [10] was 0.0203 µg/mL. Moreover, in experiment [13], the “EC50 (read off the curve), luciferase Rlu, Jurkat-Luc-hCD40 reporter cells, no basal cells” value was about 0.3 µg/mL.

B8: Pembrolizumab-Seli-FVHC-IgG4 (bispecific antibody)
heavy: not shown
light: EIVLTQSPATLSLSPGERATLSCRASKGVSTSGYSYLHWYQQKPGQAPRLLIYLASYLESGVPARFSGSGSGTDFTLTISSLEPEDFAVYYCQHSRDLPLTFGGGTKVEIKRTVAAPSVFIFPPSDEQLKSGTASVVCLLNNFYPREAKVQWKVDNALQSGNSQESVTEQDSKDSTYSLSSTLTLSKADYEKHKVYACEVTHQGLSSPVTKSFNRGEC
For the molecule B8, in experiment [4], the “EC50 (read off the curve)” value is about 0.1 µg/mL.

B9: Pembrolizumab-6A7-HC-IgG1-LALA (bispecific antibody)
heavy: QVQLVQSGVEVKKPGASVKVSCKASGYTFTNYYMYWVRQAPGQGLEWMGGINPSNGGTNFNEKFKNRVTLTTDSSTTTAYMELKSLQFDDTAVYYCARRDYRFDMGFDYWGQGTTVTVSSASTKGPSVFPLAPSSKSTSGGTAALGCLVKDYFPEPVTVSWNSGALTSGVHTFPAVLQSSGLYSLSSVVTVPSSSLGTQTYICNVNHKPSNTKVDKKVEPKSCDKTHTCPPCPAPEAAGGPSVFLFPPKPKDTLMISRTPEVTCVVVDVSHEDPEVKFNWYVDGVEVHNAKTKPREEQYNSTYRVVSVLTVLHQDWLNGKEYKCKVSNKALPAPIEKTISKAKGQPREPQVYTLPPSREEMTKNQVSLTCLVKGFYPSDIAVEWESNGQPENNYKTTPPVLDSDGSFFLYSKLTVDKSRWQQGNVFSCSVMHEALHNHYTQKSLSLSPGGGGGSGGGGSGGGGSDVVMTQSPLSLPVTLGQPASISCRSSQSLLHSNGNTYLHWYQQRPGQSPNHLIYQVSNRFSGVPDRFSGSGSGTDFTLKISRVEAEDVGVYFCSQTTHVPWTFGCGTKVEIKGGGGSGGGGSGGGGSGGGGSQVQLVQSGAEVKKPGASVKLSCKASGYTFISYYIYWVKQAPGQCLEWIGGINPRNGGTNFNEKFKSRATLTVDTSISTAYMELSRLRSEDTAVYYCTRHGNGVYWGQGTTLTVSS
light: B8 light
As for B9, in experiment [14], the “EC50 (read off the curve)” value is about 0.07 µg/mL.

B10: Pembrolizumab-APX005M-FVHC-IgG4 (bispecific antibody)
heavy: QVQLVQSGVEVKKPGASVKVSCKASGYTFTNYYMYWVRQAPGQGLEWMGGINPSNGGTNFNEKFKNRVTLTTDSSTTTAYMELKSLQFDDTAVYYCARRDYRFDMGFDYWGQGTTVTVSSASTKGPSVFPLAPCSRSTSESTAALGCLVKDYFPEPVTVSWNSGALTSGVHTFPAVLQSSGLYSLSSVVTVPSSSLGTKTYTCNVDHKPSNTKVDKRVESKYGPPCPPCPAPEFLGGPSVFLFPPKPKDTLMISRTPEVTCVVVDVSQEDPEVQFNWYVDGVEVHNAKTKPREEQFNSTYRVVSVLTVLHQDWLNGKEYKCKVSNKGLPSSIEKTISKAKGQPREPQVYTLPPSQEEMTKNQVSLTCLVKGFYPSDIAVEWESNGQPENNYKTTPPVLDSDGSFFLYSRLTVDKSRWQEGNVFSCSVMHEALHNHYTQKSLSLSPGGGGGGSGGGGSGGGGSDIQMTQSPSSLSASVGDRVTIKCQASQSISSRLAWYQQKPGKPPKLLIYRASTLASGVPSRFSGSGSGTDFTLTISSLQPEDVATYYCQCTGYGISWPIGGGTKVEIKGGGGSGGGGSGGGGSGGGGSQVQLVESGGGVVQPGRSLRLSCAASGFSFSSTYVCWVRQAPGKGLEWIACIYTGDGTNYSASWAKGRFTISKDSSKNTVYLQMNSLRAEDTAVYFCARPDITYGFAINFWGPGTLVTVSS
light: B8 light
In the case of B10, the “EC50 (read off the curve)” value in experiment [14] was about 0.2 µg/mL.

Values taken from US20260234260A1 (EUCURE BEIJING BIOPHARMA, published 2026).
